Source: patent US20160193316A1 (priority 1994, published 2016)
Like-named read-outs stand apart in the source and are kept apart here.

Key:
HLA-A*2402 = HLA-A*2402 (Homo sapiens, UniProt P04439, D101N/D140Y/D185E/E176V/E190D/F33S/G103R/G107R/I119L/I121M/I306V/K335N/L105A/L180Q/L300P/N151K/N90K/Q86E/Q94H/R106L/R138H/R89G/T104I/T345S/V100E/W191G/Y123F); test: HLA class I peptide binding assay
DRB1*1501 (DR2w2β1) = biological target: T1, DRB1*1501 (DR2w2β1) (Homo sapiens, UniProt P01903+P01911); test: HLA class II peptide binding assay; conditions: for DR2w2β1 binding data: Table XIXb
T1 construct: expressed in transfected cells; host or cells: L466.1 (fibroblasts)

DRB4*0101 (DRw53) = biological target: T2, DRB4*0101 (DRw53) (Homo sapiens, UniProt P01903+P13762, G164S); test: HLA class II peptide binding assay (pH 5.0); conditions: for DRw53 binding data: Table XIXb; for DRw53 binding information: DR3a motif peptides, unit not given, exemplary 15-mer containing the core sequence
T2 construct: expressed in transfected cells; host or cells: L257.6 (fibroblasts)

DRB1*0405 (DR4w15) = biological target: T3, DRB1*0405 (DR4w15) (Homo sapiens, UniProt P01903+P01911, A100R/A169T/D86S/F76Y/I96L/K127E/L162R/M171V/N62H/P40V/Q125Y/R42H/S133A/S149N/S66Y/V115G/V209L/W38E); test: HLA class II peptide binding assay; conditions: for DR4w15 binding data: Table XIXb; for DR4w15 binding information: DR3a motif peptides, unit not given, exemplary 15-mer containing the core sequence
T3 construct: endogenous in cells; host or cells: KT3

DRB1*0901 (DR9) = biological target: T4, DRB1*0901 (DR9) (Homo sapiens, UniProt P01903+P01911, A100R/A103E/D57H/D86V/F55Y/F60I/F76Y/I96F/K127E/L162R/M171V/P40D/Q125H/Q99R/R33Q/R42F/S133A/S66N/T210M/V115G/W38K/Y107V/Y59G/Y89S); test: biochemical; type: binding
T4 construct: endogenous in cells; host or cells: HID

DRB1*1201 (DR5w12) = biological target: T5, DRB1*1201 (DR5w12) (Homo sapiens, UniProt P01903+P01911, A100R/A169T/D57E/D86V/F55L/H45Y/K41T/L162R/M171V/P40S/Q125H/Q178H/Q39Y/Q99D/R42G/S66L/T262R/V114A/V67L/W38E/Y59H/Y61H/Y89S); test: HLA class II peptide binding assay; conditions: for DR5w12 binding data: Table XIXb; for DR5w12 binding information: DR3a motif peptides, unit not given, exemplary 15-mer containing the core sequence
T5 construct: endogenous in cells; host or cells: Herluf

DRB1*0101 (DR1) = biological target: T6, DRB1*0101 (DR1) (Homo sapiens, UniProt P01903+P01911, A100R/D57E/F55L/F60I/F76Y/I96L/L162R/M171V/P40L/Q125E/R42F/V115G/Y59C); test: HLA class II peptide binding assay; conditions: for DR1 binding data: Table XIXb, Malaria Super Motif Peptides With Binding Data; for DR1 binding information: DR3a motif peptides, unit not given, exemplary 15-mer containing the core sequence
T6 construct: endogenous in cells; host or cells: LG2

DRB5*0101 (DR2w2β2) = biological target: T7, DRB5*0101 (DR2w2β2) (Homo sapiens, UniProt P01903+Q30154); type: binding
T7 construct: expressed in transfected cells; host or cells: L416.3 (fibroblasts) or GM3107

DRB1*0802 (DR8w2) = biological target: T8, DRB1*0802 (DR8w2) (Homo sapiens, UniProt P01903+P01911, A100R/A103L/A169T/F76Y/H45Y/I96F/K41T/L162R/M171V/P40S/Q125H/Q178H/Q39Y/Q99D/R218S/R42G/S66Y/V115G/W38E); test: biochemical; type: binding
T8 construct: endogenous in cells; host or cells: OLL

DRB1*0401 (DR4w4) = biological target: T9, DRB1*0401 (DR4w4) (Homo sapiens, UniProt P01903+P01911, A100K/A169T/F76Y/I96L/K127E/L162R/M171V/N62H/P40V/Q125Y/R42H/S133A/S149N/S66Y/V115G/V209L/W38E); test: HLA class II peptide binding assay; conditions: for DR4w4 binding data: Table XIXb; for DR4w4 binding information: DR3a motif peptides, unit not given, exemplary 15-mer containing the core sequence
T9 construct: endogenous in cells; host or cells: Preiss

DRB1*0301 (DR3) = biological target: T10, DRB1*0301 (DR3) (Homo sapiens, UniProt P01903+P01911, A100K/A102G/A103R/A169T/F55Y/I96L/K41T/L162R/M171V/P40S/Q125H/Q178H/Q39Y/R42S/S66N/T106N/T262R/W38E/Y61H); test: HLA class II peptide binding assay (pH 4.5); conditions: for DR3 binding data: Table XIXb; for DR3 binding information: DR3a motif peptides, unit not given, exemplary 15-mer containing the core sequence
T10 construct: endogenous in cells; host or cells: MAT

DRB1*1302 (DR6w19) = biological target: T11, DRB1*1302 (DR6w19) (Homo sapiens, UniProt P01903+P01911, A100E/A169T/K41T/L162R/M171V/P40S/Q125H/Q178H/Q39Y/Q99D/R42S/S66N/T262R/V115G/W38E/Y61H); test: HLA class II peptide binding assay; conditions: for DR6w19 binding data: Table XIXb
T11 construct: endogenous in cells; host or cells: H0301

DRB1*0701 (DR7) = biological target: T12, DRB1*0701 (DR7) (Homo sapiens, UniProt P01903+P01911, A100R/A102G/A103Q/D57E/D86V/E43K/F76Y/K127E/L162R/M171V/P40G/Q125H/Q99D/R33Q/R42Y/R54Q/S133A/S66F/T210M/V115G/Y107V/Y59L/Y89S); test: biochemical; type: binding
T12 construct: endogenous in cells; host or cells: Pitout

DRB1*1101 (DR5w11) = biological target: T13, DRB1*1101 (DR5w11) (Homo sapiens, UniProt P01903+P01911, A100R/A169T/A87E/I96F/K41T/L162R/M171V/P40S/Q125H/Q178H/Q39Y/Q99D/R42S/S66Y/T262R/V115G/W38E); test: biochemical; type: binding
T13 construct: endogenous in cells; host or cells: Sweig

HLA-A*0201 = HLA-A*0201 (Homo sapiens, UniProt P04439, D140Y/D185E/D98H/E176V/E277Q/G131W/G231S/I119V/I121R/I166T/I218V/L300P/L318F/N151K/N90K/P208A/P217A/Q86G/Q94H/R138H/R169H/T345S); test: HLA class I peptide binding assay
HLA-B*0702 = biological target: T14, HLA-B*0702 (Homo sapiens, UniProt P01889); test: HLA class I peptide binding assay; conditions: Malaria B07 super motif peptides; binding value, no unit
T14 construct: endogenous in cells; host or cells: GM3107

[1] = Malaria A02 motif peptides, Table VIII, unit not given
[2] = DR3a motif peptides, unit not given, exemplary 15-mer containing the core sequence

T11 sequence (P01903 26-254, other chains not shown): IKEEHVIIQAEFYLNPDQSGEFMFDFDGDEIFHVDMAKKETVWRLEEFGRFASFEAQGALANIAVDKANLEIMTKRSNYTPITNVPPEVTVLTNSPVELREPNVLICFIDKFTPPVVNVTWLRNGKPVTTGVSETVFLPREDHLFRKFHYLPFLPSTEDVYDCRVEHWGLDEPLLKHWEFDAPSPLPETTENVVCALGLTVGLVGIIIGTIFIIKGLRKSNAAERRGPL
T13 sequence (P01903 26-254, other chains not shown): as above
T6 sequence (P01903 26-254 partner, other chains not shown): as the sequence (P01903 26-254, other chains not shown) above
T9 sequence (P01903 26-254 partner, other chains not shown): as the sequence (P01903 26-254, other chains not shown) above

PYAQEPAPF
HLA-A24 binding value (HLA-A*2402; Table X, Malaria A24 Super Motif Peptides With Binding Information, unit not given): 0.0370

WVNHAVPLA
DR2w2β1 binding data (DRB1*1501 (DR2w2β1)): 0.0350
DRw53 binding data (DRB4*0101 (DRw53)): 0.0430
DR4w15 binding data (DRB1*0405 (DR4w15)): 0.0360
DR9 binding data (DRB1*0901 (DR9)): 4.6000
DR5w12 binding data (DRB1*1201 (DR5w12)): 0.0240
DR1 binding data (DRB1*0101 (DR1)): 0.1900
DR2w2β2 binding data (DRB5*0101 (DR2w2β2)): 0.1600
DR8w2 binding data (DRB1*0802 (DR8w2)): 1.8000
DR4w4 binding data (DRB1*0401 (DR4w4)): 5.0000
DR3 binding data (DRB1*0301 (DR3)): 0.4000
DR6w19 binding data (DRB1*1302 (DR6w19)): 0.8900
DR7 binding data (DRB1*0701 (DR7)): 0.4400
DR5w11 binding data (DRB1*1101 (DR5w11)): 0.0079
A*0201 (binding information) (HLA-A*0201; [1]): 0.0008

LIFFDLFLV
DR2w2β1 binding data (DRB1*1501 (DR2w2β1)): 0.0048
DR4w15 binding data (DRB1*0405 (DR4w15)): -0.0009
DR9 binding data (DRB1*0901 (DR9)): -0.0003
DR5w12 binding data (DRB1*1201 (DR5w12)): 0.0016
DR1 binding data (DRB1*0101 (DR1)): 0.0006
DR2w2β2 binding data (DRB5*0101 (DR2w2β2)): 0.0019
DR8w2 binding data (DRB1*0802 (DR8w2)): 0.0007
DR4w4 binding data (DRB1*0401 (DR4w4)): 0.0130
DR3 binding data (DRB1*0301 (DR3)): -0.0008
DR6w19 binding data (DRB1*1302 (DR6w19)): 0.0006
DR7 binding data (DRB1*0701 (DR7)): 0.0028
DR5w11 binding data (DRB1*1101 (DR5w11)): 0.0019
A*0201 (binding information) (HLA-A*0201; [1]): 0.0890

ILSVSSFLFV
A*0201 (binding information) (HLA-A*0201): 0.0300

ILTDGIPDS
DR2w2β1 binding information (DRB1*1501 (DR2w2β1); [2]): 0.0001
DRw53 binding information (DRB4*0101 (DRw53)): 0.0480
DR4w15 binding information (DRB1*0405 (DR4w15)): -0.0014
DR9 binding information (DRB1*0901 (DR9)): 0.0014
DR5w12 binding information (DRB1*1201 (DR5w12)): 0.0002
DR1 binding information (DRB1*0101 (DR1)): 0.0002
DR2w2β2 binding information (DRB5*0101 (DR2w2β2)): -0.0006
DR8w2 binding information (DRB1*0802 (DR8w2)): -0.0003
DR4w4 binding information (DRB1*0401 (DR4w4)): 0.3600
DR3 binding information (DRB1*0301 (DR3)): 0.1400
DR6w19 binding information (DRB1*1302 (DR6w19); [2]): 0.0002
DR7 binding information (DRB1*0701 (DR7)): 0.0046
DR5w11 binding information (DRB1*1101 (DR5w11)): -0.0004

GLIMVLSFL
A*0201 (binding information) (HLA-A*0201): 0.0630

YQNNIVDEI
DR2w2β1 binding data (DRB1*1501 (DR2w2β1)): 0.0001
DRw53 binding data (DRB4*0101 (DRw53)): 0.0850
DR4w15 binding data (DRB1*0405 (DR4w15)): -0.0014
DR9 binding data (DRB1*0901 (DR9)): -0.0005
DR5w12 binding data (DRB1*1201 (DR5w12)): 0.0001
DR1 binding data (DRB1*0101 (DR1)): 0.0001
DR2w2β2 binding data (DRB5*0101 (DR2w2β2)): -0.0006
DR8w2 binding data (DRB1*0802 (DR8w2)): -0.0003
DR4w4 binding data (DRB1*0401 (DR4w4)): -0.0006
DR3 binding data (DRB1*0301 (DR3)): 0.0026
DR6w19 binding data (DRB1*1302 (DR6w19)): 0.0810
DR7 binding data (DRB1*0701 (DR7)): -0.0003
DR5w11 binding data (DRB1*1101 (DR5w11)): -0.0004

LLMDCSGSI
DRw53 binding information (DRB4*0101 (DRw53)): 0.0057
DR4w15 binding information (DRB1*0405 (DR4w15)): 0.0028
DR5w12 binding information (DRB1*1201 (DR5w12)): 0.0001
DR1 binding information (DRB1*0101 (DR1)): 0.0041
DR2w2β2 binding information (DRB5*0101 (DR2w2β2)): 0.0250
DR8w2 binding information (DRB1*0802 (DR8w2)): 0.0014
DR4w4 binding information (DRB1*0401 (DR4w4)): 0.0340
DR3 binding information (DRB1*0301 (DR3)): 0.0300
DR7 binding information (DRB1*0701 (DR7)): 0.0072
DR5w11 binding information (DRB1*1101 (DR5w11)): -0.0002
A*0201 (binding information) (HLA-A*0201; [1]): 0.0460

DPNRNVDBIA (EQPQGDDNNL)
B*0702 (binding information) (HLA-B*0702): 0.0002

MPNDPNRNV
B*0702 (binding information) (HLA-B*0702): 0.0001
DR3 binding information (DRB1*0301 (DR3)): -0.0033

YYIPHQSSL
A*201 (binding information) (HLA-A*2402): 4.3000
A*2401 (binding information, Malaria A24 motif peptides) (HLA-A*2402): 4.3000

LTMSNVKNV
DR2w2β1 binding data (DRB1*1501 (DR2w2β1)): 0.0003
DRw53 binding data (DRB4*0101 (DRw53)): 0.0024
DR4w15 binding data (DRB1*0405 (DR4w15)): 0.0074
DR9 binding data (DRB1*0901 (DR9)): 0.0710
DR5w12 binding data (DRB1*1201 (DR5w12)): 0.0001
DR1 binding data (DRB1*0101 (DR1)): 0.0018
DR2w2β2 binding data (DRB5*0101 (DR2w2β2)): 0.0009
DR8w2 binding data (DRB1*0802 (DR8w2)): 0.0110
DR4w4 binding data (DRB1*0401 (DR4w4)): 0.0023
DR3 binding data (DRB1*0301 (DR3)): 0.0058
DR6w19 binding data (DRB1*1302 (DR6w19)): 0.0430
DR7 binding data (DRB1*0701 (DR7)): 0.0410
DR5w11 binding data (DRB1*1101 (DR5w11)): 0.0030
A*0201 (binding information) (HLA-A*0201; [1]): 0.0010

KYLVIVFLI
A*201 (binding information) (HLA-A*2402): 4.6000
A*2401 (binding information, Malaria A24 motif peptides) (HLA-A*2402): 4.6000

QLVVILIDGI
A*0201 (binding information) (HLA-A*0201; [1]): 0.0002
